Results reported in article doi:10.1101/787473, “C9orf72 arginine-rich dipeptide repeat proteins disrupt importin β-mediated nuclear import” (bioRxiv, 2019).
No end group written: not given here.

Columns and labels:
Settings in all cases: both partners purified
[1] = target: T1, GST-tagged S. cerevisiae Nup100(1-307) (S. cerevisiae, UniProt Q02629 1-307); assay: bead halo assay; GST-fusion yeast FG- and GLFG-domain baits on glutathione beads; AF488-labeled DPRs in binding buffer, without added importin β; rim vs. background ratio against the Nup116 F>A mutant
T1 construct: Nup100, S. cerevisiae, residues 1-307 (GLFG domain fragment); Bait on glutathione beads; also called FG-domains of Nup100; Nup100 fragments; source: E. coli T7 Shuffle, purified (glutathione-sepharose)

[2] = target: T2, GST-tagged S. cerevisiae Nup100(1-610) (S. cerevisiae, UniProt Q02629 1-610); assay: as above
T2 construct: Nup100, S. cerevisiae, residues 1-610 (GLFG domain fragment); Bait on glutathione beads; also called FG-domains of Nup100; Nup100 fragments; source: E. coli T7 Shuffle, purified (glutathione-sepharose)

[3] = target: T3, biotinylated WT importin β-Avitag (pKW1982; pK1099) (human, UniProt Q14974 1-876, biotin on the Avitag (co-expressed biotin ligase, 100 µM D-biotin)); assay: bead halo assay; biotinylated bait (importin β-Avitag or BSA) on neutravidin beads; fluorescent prey (AF488-DPR 200 nM, Rango) in binding buffer (20 mM HEPES pH 7.4, 150 mM KOAc, 2 mM Mg(OAc)2, 1 mM DTT, 0.1% Tween-20) with EHBN; room temperature, at least 30 min; confocal rim vs. background ratio
T3 construct: importin β (KPNB1), human, wild type; called full-length in the results of the bead halo assay; Immobilised on neutravidin beads by the biotinylated Avitag; also called biotinylated importin β; full-length importin β-coated beads; source: E. coli BL21DE3 co-transfected with pAC-biotin ligase, purified (Ni-NTA)

[4] = target: T4, full length human importin β (KPNB1), expressed from pET30a-WT Importin β (pKW485) (human, UniProt Q14974 1-876); assay: FRET or BRET; displacement of importin β from the Rango FRET sensor in solution: 20 nM Rango + 50 nM importin β in TBS pH 7.4, 0.005% Tween-20, increasing concentrations of DPR 10-mers or ZZ-RanQ69L-GTP; acceptor/donor emission ratio, fit to one-site binding model
T4 construct: importin β (KPNB1), human, wild type, full length; also called unlabeled importin β
T4 sequence (Q14974 whole entry): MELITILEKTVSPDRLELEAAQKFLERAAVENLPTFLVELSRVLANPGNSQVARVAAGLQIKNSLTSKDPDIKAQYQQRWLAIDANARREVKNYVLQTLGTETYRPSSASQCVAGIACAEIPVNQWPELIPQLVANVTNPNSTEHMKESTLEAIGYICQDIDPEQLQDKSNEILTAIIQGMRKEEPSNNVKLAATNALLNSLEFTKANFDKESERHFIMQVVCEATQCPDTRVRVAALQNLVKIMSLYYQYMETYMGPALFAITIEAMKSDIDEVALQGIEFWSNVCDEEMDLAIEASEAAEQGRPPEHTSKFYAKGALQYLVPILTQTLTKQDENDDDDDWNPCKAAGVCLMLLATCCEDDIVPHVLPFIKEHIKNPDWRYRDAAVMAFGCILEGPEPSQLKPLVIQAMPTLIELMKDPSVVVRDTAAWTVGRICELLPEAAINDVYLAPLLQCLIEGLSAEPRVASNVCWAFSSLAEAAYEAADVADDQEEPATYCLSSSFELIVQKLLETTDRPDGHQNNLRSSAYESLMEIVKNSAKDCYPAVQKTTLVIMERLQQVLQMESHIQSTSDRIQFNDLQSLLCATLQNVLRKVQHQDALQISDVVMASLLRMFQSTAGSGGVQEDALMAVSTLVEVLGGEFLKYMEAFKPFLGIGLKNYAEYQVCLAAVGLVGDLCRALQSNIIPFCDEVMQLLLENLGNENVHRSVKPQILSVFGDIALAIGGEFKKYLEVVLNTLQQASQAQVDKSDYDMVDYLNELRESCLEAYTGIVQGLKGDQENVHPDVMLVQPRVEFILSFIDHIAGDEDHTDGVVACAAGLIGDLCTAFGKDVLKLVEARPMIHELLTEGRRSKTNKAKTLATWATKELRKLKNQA

T3 sequence (Q14974 whole entry): as above
T2 sequence (Q02629 1-610): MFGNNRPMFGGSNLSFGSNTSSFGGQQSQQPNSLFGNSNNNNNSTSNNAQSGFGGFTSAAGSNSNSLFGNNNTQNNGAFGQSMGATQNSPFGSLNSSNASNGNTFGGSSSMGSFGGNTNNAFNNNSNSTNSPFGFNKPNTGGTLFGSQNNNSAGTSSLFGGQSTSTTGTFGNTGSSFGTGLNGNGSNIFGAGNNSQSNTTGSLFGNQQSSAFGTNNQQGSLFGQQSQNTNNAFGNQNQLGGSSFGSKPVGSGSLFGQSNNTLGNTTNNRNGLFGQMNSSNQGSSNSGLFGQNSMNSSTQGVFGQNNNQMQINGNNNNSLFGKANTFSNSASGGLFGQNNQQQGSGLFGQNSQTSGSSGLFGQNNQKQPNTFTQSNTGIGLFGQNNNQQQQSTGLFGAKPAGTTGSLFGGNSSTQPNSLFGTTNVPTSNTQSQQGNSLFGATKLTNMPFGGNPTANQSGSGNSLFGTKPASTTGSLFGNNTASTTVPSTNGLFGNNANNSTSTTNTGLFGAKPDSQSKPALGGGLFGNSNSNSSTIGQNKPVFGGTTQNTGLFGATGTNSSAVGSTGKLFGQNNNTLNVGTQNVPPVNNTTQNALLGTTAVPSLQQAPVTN
T1 sequence (Q02629 1-307): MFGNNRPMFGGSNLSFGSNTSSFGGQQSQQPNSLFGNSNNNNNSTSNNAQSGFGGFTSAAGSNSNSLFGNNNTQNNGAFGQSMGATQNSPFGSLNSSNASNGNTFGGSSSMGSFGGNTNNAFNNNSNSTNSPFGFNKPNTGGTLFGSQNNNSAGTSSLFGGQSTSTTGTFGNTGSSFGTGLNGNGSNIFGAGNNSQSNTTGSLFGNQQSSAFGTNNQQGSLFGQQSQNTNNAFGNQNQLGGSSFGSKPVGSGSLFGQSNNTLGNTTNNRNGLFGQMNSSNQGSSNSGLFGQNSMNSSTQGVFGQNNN

B1: AF488-labeled GR10 (peptide)
peptide: GRGRGRGRGRGRGRGRGRGRKC(Alexa Fluor 488 C5‑maleimide)
notes: C9orf72 poly-GR dipeptide repeat, ten repeats, with C-terminal K and C; also called AF488-GR10; AF488-labeled R-DPR; source: synthetic peptide (Genscript)
- binding result [1]: binds
- binding result [2]: binds
- halo intensity (rim vs. background) against control beads [3]: ~2 fold

B2: AF488-labeled PR10 (peptide)
peptide: PRPRPRPRPRPRPRPRPRPRKC(Alexa Fluor 488 C5‑maleimide)
notes: C9orf72 poly-PR dipeptide repeat, ten repeats, with C-terminal K and C; also called AF488-PR10; AF488-labeled R-DPR; source: synthetic peptide (Genscript)
- binding result [1]: binds
- binding result [2]: binds
- halo intensity (rim vs. background) against control beads [3]: ~2 fold

B3: GR10, synthetic poly-glycine-arginine 10-mer dipeptide repeat protein with C-terminal lysine and cysteine (peptide)
peptide: GRGRGRGRGRGRGRGRGRGRKC
notes: C9orf72 poly-GR dipeptide repeat, ten repeats, with C-terminal K (solubility) and C (labelling); Unlabelled peptide; The C-terminal KC was added by the authors; also called poly-GR; R-DPR; source: synthetic peptide (Genscript; 21st Century Biochemicals)
- binding result [4]: binds

B4: PR10, synthetic poly-proline-arginine 10-mer dipeptide repeat protein with C-terminal lysine and cysteine (peptide)
peptide: PRPRPRPRPRPRPRPRPRPRKC
notes: C9orf72 poly-PR dipeptide repeat, ten repeats, with C-terminal K (solubility) and C (labelling); Unlabelled peptide; The C-terminal KC was added by the authors; also called R-DPR; source: synthetic peptide (Genscript; 21st Century Biochemicals)
- binding result [4]: binds
